Assay [1] concerns the target human α5β1 integrin, full-length (Millipore CC1027) (human) (UniProt P08648). As to the kind of experiment: BLI; inhibition: α5β1 integrin at 35.5 µg/mL preincubated one hour at room temperature with or without RGD peptide at 50 µg/mL, then LOXL2-coated AR2G sensor dipped in it; same buffer as the kinetics. (In BLI a coated tip is dipped into the sample, and binding shifts an interference pattern.)

The next assay concerns the target T1, SPARC (UniProt P09486 18-303).
T1 construct: SPARC; also called immobilized SPARC
T1 sequence (looked up): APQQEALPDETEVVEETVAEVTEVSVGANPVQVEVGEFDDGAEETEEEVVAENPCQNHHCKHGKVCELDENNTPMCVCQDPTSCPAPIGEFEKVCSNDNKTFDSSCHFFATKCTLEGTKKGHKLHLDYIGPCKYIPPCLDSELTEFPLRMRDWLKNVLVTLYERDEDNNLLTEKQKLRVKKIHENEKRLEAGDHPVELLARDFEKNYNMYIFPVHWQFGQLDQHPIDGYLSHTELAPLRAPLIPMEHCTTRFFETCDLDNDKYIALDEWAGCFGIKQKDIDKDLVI
As to the kind of experiment: SPR; BIAcore T100; ligands covalently immobilised by amine coupling on CM5 or CM3 (collagen XVII) sensor chips; LOXL2, SRCR 1-2 and SRCR 1-4 injected in 10 mM Hepes pH 7.4, 150 mM NaCl, 0.05% P20. (In SPR one partner is held on a chip, and binding of the other changes the refractive index at the surface.)

Assay [2] deals with T2, human α5β1 integrin, full-length (Millipore CC1027) (human, UniProt P08648 42-1049; P05556 21-798).
T2 construct: integrin alpha-5 subunit of human α5β1 integrin; integrin beta-1 subunit of human α5β1 integrin; Used in buffer with 50 mM β-octyl-D-glucopyranoside, MgCl2 and MnCl2; The source is told for the BLI assays only; also called full-length α5β1 integrin; source: bought: Millipore, Merck, CC1027
As to the kind of experiment: SPR; SPR imaging, BIAcore Flexchip; α5β1 integrin (29.3 µg/mL) as analyte recirculated over ECM arrays including spotted LOXL2; 10 mM Hepes pH 7.4, 150 mM NaCl, 50 mM β-octyl-D-glucopyranoside, 2 mM MgCl2, 2 mM MnCl2. The conditions noted are these: both partners purified.

The target in assay [3] is T2, human α5β1 integrin, full-length …. In words: BLI; inhibition: α5β1 integrin at 35.5 µg/mL preincubated one hour at room temperature with or without RGD peptide at 50 µg/mL, then LOXL2-coated AR2G sensor dipped in it; same buffer as the kinetics. The conditions noted are these: both partners purified.

T2 sequence (P08648 42-1049, chain 1 of 2): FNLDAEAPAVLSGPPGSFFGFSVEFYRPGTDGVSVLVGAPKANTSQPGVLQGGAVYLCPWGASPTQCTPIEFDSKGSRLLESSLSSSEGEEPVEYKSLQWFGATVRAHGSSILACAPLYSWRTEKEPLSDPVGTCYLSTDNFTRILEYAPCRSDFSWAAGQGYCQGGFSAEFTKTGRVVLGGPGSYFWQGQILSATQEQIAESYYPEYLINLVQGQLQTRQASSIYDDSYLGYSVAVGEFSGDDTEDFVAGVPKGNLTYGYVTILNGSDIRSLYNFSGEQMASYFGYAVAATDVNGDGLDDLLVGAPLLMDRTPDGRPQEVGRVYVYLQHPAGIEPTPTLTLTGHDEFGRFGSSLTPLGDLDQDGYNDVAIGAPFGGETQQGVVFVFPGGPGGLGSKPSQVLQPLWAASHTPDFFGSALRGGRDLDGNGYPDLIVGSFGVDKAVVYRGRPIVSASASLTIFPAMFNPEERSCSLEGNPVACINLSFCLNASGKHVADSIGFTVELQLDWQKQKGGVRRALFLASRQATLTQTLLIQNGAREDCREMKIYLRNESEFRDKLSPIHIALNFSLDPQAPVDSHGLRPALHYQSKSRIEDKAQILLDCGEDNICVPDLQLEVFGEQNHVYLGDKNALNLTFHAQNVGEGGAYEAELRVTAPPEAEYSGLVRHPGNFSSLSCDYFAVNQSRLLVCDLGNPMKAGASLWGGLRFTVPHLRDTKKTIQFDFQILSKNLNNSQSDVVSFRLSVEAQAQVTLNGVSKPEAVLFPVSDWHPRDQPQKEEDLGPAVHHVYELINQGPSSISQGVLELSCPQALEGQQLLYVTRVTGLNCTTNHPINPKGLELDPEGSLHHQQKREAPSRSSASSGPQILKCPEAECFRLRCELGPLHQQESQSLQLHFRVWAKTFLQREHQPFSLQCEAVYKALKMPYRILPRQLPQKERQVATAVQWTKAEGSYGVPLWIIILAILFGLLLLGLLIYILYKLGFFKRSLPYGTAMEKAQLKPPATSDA
T2 sequence (P05556 21-798, chain 2 of 2): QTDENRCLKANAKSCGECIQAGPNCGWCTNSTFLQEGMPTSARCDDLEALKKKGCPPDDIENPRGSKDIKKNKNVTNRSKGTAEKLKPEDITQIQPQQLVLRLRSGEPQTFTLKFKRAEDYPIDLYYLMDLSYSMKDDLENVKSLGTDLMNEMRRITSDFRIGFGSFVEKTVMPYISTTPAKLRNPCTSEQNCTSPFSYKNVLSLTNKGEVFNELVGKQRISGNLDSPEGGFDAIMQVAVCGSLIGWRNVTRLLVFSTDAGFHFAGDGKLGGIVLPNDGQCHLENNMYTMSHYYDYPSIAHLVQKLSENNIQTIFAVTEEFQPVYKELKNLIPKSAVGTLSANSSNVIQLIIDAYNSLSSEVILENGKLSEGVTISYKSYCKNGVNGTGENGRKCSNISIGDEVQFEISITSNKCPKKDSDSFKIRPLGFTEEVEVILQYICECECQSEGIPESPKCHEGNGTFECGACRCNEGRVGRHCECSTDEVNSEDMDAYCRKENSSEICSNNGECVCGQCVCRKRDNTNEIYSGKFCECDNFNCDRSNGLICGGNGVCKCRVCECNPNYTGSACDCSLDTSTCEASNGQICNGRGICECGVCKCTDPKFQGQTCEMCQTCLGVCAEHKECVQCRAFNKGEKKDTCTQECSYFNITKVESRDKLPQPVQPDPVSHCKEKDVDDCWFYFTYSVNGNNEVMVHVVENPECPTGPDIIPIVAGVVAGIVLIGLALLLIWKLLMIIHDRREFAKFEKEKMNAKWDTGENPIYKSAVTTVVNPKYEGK
human α5β1 integrin, full-length (Millipore CC1027) (human), sequence (P08648 42-1049, chain 1 of 2): as the sequence (P08648 42-1049, chain 1 of 2) above
human α5β1 integrin, full-length (Millipore CC1027) (human), sequence (P05556 21-798, chain 2 of 2, further chain): as the sequence (P05556 21-798, chain 2 of 2) above

For the molecule RGD peptide (Sigma-Aldrich, A8052), the percent decrease of the binding of α5β1 integrin to LOXL2 in assay [1] was determined as 24.9%.

B1: LOXL2 N-terminal scavenger receptor cysteine-rich domains SRCR 1-2 (residues 58-302) (domain or fragment, UniProt Q9Y4K0 58-302, looked up)
chain: LRLAGQKRKHSEGRVEVYYDGQWGTVCDDDFSIHAAHVVCRELGYVEAKSWTASSSYGKGEGPIWLDNLHCTGNEATLAACTSNGWGVTDCKHTEDVGVVCSDKRIPGFKFDNSLINQIENLNIQVEDIRIRAILSTYRKRTPVMEGYVEVKEGKTWKQICDKHWTAKNSRVVCGMFGFPGERTYNTKVYKMFASRRKQRYWPFSMDCTGTEAHISSCKLGPQVSLDPMKNVTCENGLPAVVSCV
notes: LOXL2, SRCR domains 1-2, residues 58-302; also called SRCR 1-2 domain; source: expressed as recombinant protein as previously described [62]
In the case of B1, the affinity with SPARC (both partners purified), expressed as Kd, was 21.4 nM.

B2: lysyl oxidase-like 2 (LOXL2), full-length recombinant protein (enzyme, UniProt Q9Y4K0 26-774, looked up)
chain: QYDSWPHYPEYFQQPAPEYHQPQAPANVAKIQLRLAGQKRKHSEGRVEVYYDGQWGTVCDDDFSIHAAHVVCRELGYVEAKSWTASSSYGKGEGPIWLDNLHCTGNEATLAACTSNGWGVTDCKHTEDVGVVCSDKRIPGFKFDNSLINQIENLNIQVEDIRIRAILSTYRKRTPVMEGYVEVKEGKTWKQICDKHWTAKNSRVVCGMFGFPGERTYNTKVYKMFASRRKQRYWPFSMDCTGTEAHISSCKLGPQVSLDPMKNVTCENGLPAVVSCVPGQVFSPDGPSRFRKAYKPEQPLVRLRGGAYIGEGRVEVLKNGEWGTVCDDKWDLVSASVVCRELGFGSAKEAVTGSRLGQGIGPIHLNEIQCTGNEKSIIDCKFNAESQGCNHEEDAGVRCNTPAMGLQKKLRLNGGRNPYEGRVEVLVERNGSLVWGMVCGQNWGIVEAMVVCRQLGLGFASNAFQETWYWHGDVNSNKVVMSGVKCSGTELSLAHCRHDGEDVACPQGGVQYGAGVACSETAPDLVLNAEMVQQTTYLEDRPMFMLQCAMEENCLSASAAQTDPTTGYRRLLRFSSQIHNNGQSDFRPKNGRHAWIWHDCHRHYHSMEVFTHYDLLNLNGTKVAEGHKASFCLEDTECEGDIQKNYECANFGDQGITMGCWDMYRHDIDCQWVDITDVPPGDYLFQVVINPNFEVAESDYSNNIMKCRSRYDGHRIWMYNCHIGGSFSEETEKKFEHFSGLLNNQLSPQ
notes: lysyl oxidase-like 2 (LOXL2), full-length recombinant protein made in the laboratory; As a secreted recombinant protein it probably lacks its signal peptide (surmise); also called full-length LOXL2; soluble LOXL2; source: expressed as recombinant protein as previously described [62]
Take B2: in the assay with SPARC, the KD1 (site 1, heterogeneous ligand model) is 37.8 nM; the KD2 (site 2, heterogeneous ligand model) turned out to be 41.5 nM; the ka1 (site 1, heterogeneous ligand model) was found to be 186000 M⁻¹ s⁻¹; the ka2 (site 2, heterogeneous ligand model) was 167000 M⁻¹ s⁻¹. Further, in the assay with SPARC, the kd1 (site 1, heterogeneous ligand model) was found to be 0.00622 s⁻¹ and the kd2 (site 2, heterogeneous ligand model) was determined as 0.00769 s⁻¹. The binding result in assay [2] is reported as “binds”.

B3: Recombinant human LOXL2 (R&D Systems, 2639-AO) (enzyme, UniProt Q9Y4K0 26-774, looked up)
chain: QYDSWPHYPEYFQQPAPEYHQPQAPANVAKIQLRLAGQKRKHSEGRVEVYYDGQWGTVCDDDFSIHAAHVVCRELGYVEAKSWTASSSYGKGEGPIWLDNLHCTGNEATLAACTSNGWGVTDCKHTEDVGVVCSDKRIPGFKFDNSLINQIENLNIQVEDIRIRAILSTYRKRTPVMEGYVEVKEGKTWKQICDKHWTAKNSRVVCGMFGFPGERTYNTKVYKMFASRRKQRYWPFSMDCTGTEAHISSCKLGPQVSLDPMKNVTCENGLPAVVSCVPGQVFSPDGPSRFRKAYKPEQPLVRLRGGAYIGEGRVEVLKNGEWGTVCDDKWDLVSASVVCRELGFGSAKEAVTGSRLGQGIGPIHLNEIQCTGNEKSIIDCKFNAESQGCNHEEDAGVRCNTPAMGLQKKLRLNGGRNPYEGRVEVLVERNGSLVWGMVCGQNWGIVEAMVVCRQLGLGFASNAFQETWYWHGDVNSNKVVMSGVKCSGTELSLAHCRHDGEDVACPQGGVQYGAGVACSETAPDLVLNAEMVQQTTYLEDRPMFMLQCAMEENCLSASAAQTDPTTGYRRLLRFSSQIHNNGQSDFRPKNGRHAWIWHDCHRHYHSMEVFTHYDLLNLNGTKVAEGHKASFCLEDTECEGDIQKNYECANFGDQGITMGCWDMYRHDIDCQWVDITDVPPGDYLFQVVINPNFEVAESDYSNNIMKCRSRYDGHRIWMYNCHIGGSFSEETEKKFEHFSGLLNNQLSPQ
notes: recombinant human lysyl oxidase-like 2 (LOXL2), commercial protein; also called immobilized LOXL2; source: bought: R&D Systems, BioTechne, 2639-AO
Take B3: the binding result in assay [3] is listed as “binds”.
